Target: T1, recombinant full-length PD-L1 protein (Phe19-Thr290) (UniProt Q9NZQ7 19-290)
T1 construct: Programmed Death-Ligand 1 (PD-L1), residues Phe19-Thr290; also called flPD-L1; source: bought: Amsbio (TP710226)
Test: BLI; FortéBio Octet K2; p17 or p24 immobilised on aminopropylsilane biosensors, saturated with BSA; association and dissociation 8 min each; PBS with 0.01% BSA and 0.002% Tween-20, 1,000 rpm; for kinetics flPD-L1 from 0 to 450 nM, BSA as reference, 1:1 model
Conditions: both partners purified

T1 sequence (Q9NZQ7 19-290): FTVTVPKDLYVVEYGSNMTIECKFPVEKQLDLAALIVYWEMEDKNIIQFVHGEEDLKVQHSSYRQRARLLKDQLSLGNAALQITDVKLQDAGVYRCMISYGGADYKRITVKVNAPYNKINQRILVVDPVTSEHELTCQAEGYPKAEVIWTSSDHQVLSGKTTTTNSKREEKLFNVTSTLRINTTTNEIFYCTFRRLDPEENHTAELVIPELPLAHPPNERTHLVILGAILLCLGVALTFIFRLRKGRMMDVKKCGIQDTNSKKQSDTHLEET

B1: p17 HIV matrix protein (natural protein)
chain: GARASVLSGGELDRWEKIRLRPGGKKKYKLKHIVWASRELERFAVNPGLLETSEGCRQILGQLQPSLQTGSEELRSLYNTVATLYCVHQRIEIKDTKEALDKIEEEQNKSKKKAQQAAADTGHSNQVSQNY
Kd: 300 pM

From article PMC9286290, “Active PD-L1 incorporation within HIV virions functionally impairs T follicular helper cells” (PLoS Pathogens, 2022)
